# Numbering of substitutions follows the chain as printed.
# T1: WT G-CSFR(Ig-CRH), purified, tag cleaved (human, UniProt Q99062 26-331)
# T1 construct: also called G-CSFRWT; wild type G-CSFR ECD
# T1 chain: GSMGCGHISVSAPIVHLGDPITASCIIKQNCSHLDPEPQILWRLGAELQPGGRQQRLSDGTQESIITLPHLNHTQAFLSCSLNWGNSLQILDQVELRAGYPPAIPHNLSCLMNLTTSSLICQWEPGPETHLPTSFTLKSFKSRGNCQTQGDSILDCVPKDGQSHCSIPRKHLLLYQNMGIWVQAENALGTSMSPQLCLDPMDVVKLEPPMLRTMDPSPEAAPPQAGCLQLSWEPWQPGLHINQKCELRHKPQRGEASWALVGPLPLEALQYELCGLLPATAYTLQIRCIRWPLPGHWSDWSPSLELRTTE
# T2: G-CSFR(Ig-CRH)E design 34, purified, tag cleaved (human, UniProt Q99062 26-331)
# T2 construct: SPR protein; also called Design 34 G-CSFR(Ig-CRH)E
# T2 chain: T1 chain with R143E, R169D
# T3: G-CSFR(Ig-CRH)E design 300, purified, tag cleaved (human, UniProt Q99062 26-331)
# T3 construct: SPR protein; also called Design 300 G-CSFR(Ig-CRH)E
# T3 chain: T1 chain with F77K, Q93K, R169D
# T4: G-CSFR(Ig-CRH)E design 304, purified, tag cleaved (human, UniProt Q99062 26-331)
# T4 construct: SPR protein; also called Design 304 G-CSFR(Ig-CRH)E
# T4 chain: T1 chain with R43E, E95K, R169D
# T5: G-CSFR(Ig-CRH)E design 402, purified, tag cleaved (human, UniProt Q99062 26-331)
# T5 construct: SPR protein; also called Design 402 G-CSFR(Ig-CRH)E
# T5 chain: T1 chain with R43E, R169E, Q176E, R290E
# T6: G-CSFR(Ig-CRH)E design 401, purified, tag cleaved (human, UniProt Q99062 26-331)
# T6 construct: SPR protein; also called Design 401 G-CSFR(Ig-CRH)E
# T6 chain: T1 chain with R43E, R169D, R290D
# T7: G-CSFR(Ig-CRH)E design 303, purified, tag cleaved (human, UniProt Q99062 26-331)
# T7 construct: SPR protein; also called Design 303 G-CSFR(Ig-CRH)E
# T7 chain: T1 chain with E95K, R169D
# T8: G-CSFR(Ig-CRH)E design 35, purified, tag cleaved (human, UniProt Q99062 26-331)
# T8 construct: SPR protein; also called Design #35 G-CSFR(Ig-CRH)E
# T8 chain: T1 chain with R143E, L173E, Q176E
# T9: G-CSFR(Ig-CRH)E design 134 (R41E_R141E_R167D), purified, tag cleaved (human, UniProt Q99062 26-331)
# T9 construct: also called Design 134 G-CSFR(Ig-CRH)E; design 137 G-CSFR(Ig-CRH)E
# T9 chain: T1 chain with R43E, R143E, R169D
# T10: G-CSFR(Ig-CRH)E design 130, purified, tag cleaved (human, UniProt Q99062 26-331)
# T10 construct: SPR protein; also called Design 130 G-CSFR(Ig-CRH)E
# T10 chain: T1 chain with R43E, R169D
# B1: G-CSFE design 34, purified, tag cleaved (ligand)
# chain: TPLGPASSLPQSFLLKCLEQVRKIQGDGAALQEKLCATYKLCHPEELVLLGHSLGIPWAPLSSCPSQALQLAGCLSQLHSGLFLYQGLLQALEGISPELGPTLDTLQKDVARFATTIWQQMRRLGMAPALQPTQGAMPAFASAFQRRAGGVLVASHLQSFLEVSYRVLRHLAQAAAENLYFQ
# notes: also called Design 34 G-CSFE
# B2: G-CSFE design 300, purified, tag cleaved (ligand)
# chain: B1 chain with K40D, L41D, R122E, R123E
# notes: also called Design 300 G-CSFE
# B3: G-CSFE design 304, purified, tag cleaved (ligand)
# chain: B1 chain with E46R, R122E, R123E, R147E
# notes: also called 304 G-CSF
# B4: G-CSFE design 402, purified, tag cleaved (ligand)
# chain: B1 chain with E19K, E46R, K108L, R112K, T115K, R122E, R123E
# notes: also called Design 402 G-CSFE
# B5: G-CSFE design 401, purified, tag cleaved (ligand)
# chain: B1 chain with E19K, E46R, R122E, R123E
# notes: also called Design 401 G-CSFE
# B6: G-CSFE design 303, purified, tag cleaved (ligand)
# chain: B1 chain with R122E, R123E, R147E
# notes: also called Design 303 G-CSFE
# B7: G-CSFE design 35, purified, tag cleaved (ligand)
# chain: B1 chain with K108L, R112D, T115K
# notes: also called Design 35 G-CSFE
# B8: G-CSFE design 130 (E46R_L108K_D112R), purified, tag cleaved (ligand)
# chain: B1 chain with E46R, R122E, R123E
# notes: also called 130 G-CSF; G-CSF137
# Tests used:
# [1] = molecular target: T1, WT G-CSFR(Ig-CRH), purified, tag cleaved; assay: SPR (Biacore T200)
# [2] = molecular target: T1, WT G-CSFR(Ig-CRH), purified, tag cleaved; assay: SPR (Biacore T200), WT G-CSFR(Ig-CRH) amine-coupled, G-CSFE injected; KD relative to WT:WT control (larger = weaker)
# [3] = molecular target: T2, G-CSFR(Ig-CRH)E design 34, purified, …; assay: SPR (Biacore T200), G-CSFR(Ig-CRH)E amine-coupled, G-CSFE injected; KD relative to WT:WT control (larger = weaker)
# Method: (§1) The SPR binding assays were carried out on a Biacore T200 instrument (GE Healthcare, Mississauga, ON, Canada) with PBS-T (PBS+0.05% (v/v) Tween 20) running buffer at a temperature of 25° C. CMS Series S sensor chip, Biacore amine coupling kit (NHS, EDC and 1 M ethanolamine), and 10 mM sodium acetate buffers were all purchased from GE Healthcare. PBS running buffer with 0.05% Tween20 (PBS-T) was purchased from Teknova Inc. (Hollister, CA).
# (§2) To determine binding affinity of G-CSFE to G-CSFRE the G-CSFRE mutant was captured by standard amine coupling as described by the manufacturer (GE LifeSciences). Briefly, immediately after EDC/NHS activation, a 5 μg/mL solution of G-CSFRE in 10 mM NaOAc, pH 5.0, was injected at a flow rate of 5 μL/min until a receptor density of ˜700-900 RU was reached. The remaining active groups were quenched by a 420 s injection of 1 M ethanolamine hydrochloride-NaOH pH 8.5 at 10 μL/min. Using single-cycle kinetics, six concentrations of a two-fold dilution series of the corresponding G-CSFE mutant starting at 200 nM with a blank buffer control were sequentially injected at 25 μL/min for 300s with a 1800s dissociation phase, resulting in a set of sensorgrams with a buffer blank reference. The same sample titration was also performed on a reference cell with no variants captured. The chip was regenerated to prepare for the next injection cycle by one pulse of 10 mM glycine/HCl, pH 2.0, for 30 s at 30 μL/min.
# (§3) Double-referenced sensorgrams from duplicate or triplicate repeat injections were analyzed using Biacore™ T200 Evaluation Software v3.0 and fit to the 1:1 Langmuir binding model.
# [4] = molecular target: T3, G-CSFR(Ig-CRH)E design 300, purified, …; assay: as above
# Method: as §1, §2, §3
# [5] = molecular target: T1, WT G-CSFR(Ig-CRH), purified, tag cleaved; assay: SPR (Biacore T200), WT G-CSFR(Ig-CRH) amine-coupled
# [6] = molecular target: T4, G-CSFR(Ig-CRH)E design 304, purified, …; assay: SPR (Biacore T200), G-CSFR(Ig-CRH)E amine-coupled, G-CSFE injected; KD relative to WT:WT control (larger = weaker)
# Method: as §1, §2, §3
# [7] = molecular target: T5, G-CSFR(Ig-CRH)E design 402, purified, …; assay: SPR (Biacore T200), G-CSFR(Ig-CRH)E amine-coupled, G-CSFE injected; steady-state derived KD relative to steady-state WT:WT KD
# Method: as §2, §3
# (§4) Kinetic-derived affinity constants (KD) where obtained by fitting the association and dissociation phases of the curves. […] For the cases in which the kinetic parameters could not be fit an attempt was made to derive a steady state affinity constant.
# [8] = molecular target: T6, G-CSFR(Ig-CRH)E design 401, purified, …; assay: as above
# Method: as §2, §3, §4
# [9] = molecular target: T7, G-CSFR(Ig-CRH)E design 303, purified, …; assay: as above
# Method: as §2, §3, §4
# [10] = molecular target: T8, G-CSFR(Ig-CRH)E design 35, purified, …; assay: SPR (Biacore T200), G-CSFR(Ig-CRH)E amine-coupled, G-CSFE injected; KD relative to WT:WT control (larger = weaker)
# Method: as §1, §2, §3
# [11] = molecular target: T9, G-CSFR(Ig-CRH)E design 134 …; assay: as above
# Method: as §1, §2, §3
# [12] = molecular target: T10, G-CSFR(Ig-CRH)E design 130, purified, …; assay: as above
# Method: as §1, §2, §3
binder,measurement,setting,value
B1,fold weaker KD (vs WT:WT),[1],≥ 20 fold
same,KD fold change (vs WT:WT),[2],33 fold
same,KD fold change (vs WT:WT),[3],5 fold
B2,KD fold change (vs WT:WT),[4],194 fold
same,binding result,[5],no binding
B3,KD fold change (vs WT:WT),[6],6.5 fold
same,binding result,[5],no binding
B4,binding result,[5],no binding
same,KD fold change (vs WT:WT),[7],0.8 fold
B5,binding result,[5],no binding
same,KD fold change (vs WT:WT),[8],0.6 fold
B6,binding result,[5],no binding
same,KD fold change (vs WT:WT),[9],2.2 fold
B7,KD fold change (vs WT:WT),[2],5 fold
same,KD fold change (vs WT:WT),[10],3.3 fold
B8,KD fold change (vs WT:WT),[11],0.3 fold
same,KD fold change (vs WT:WT),[12],0.9 fold
same,binding result,[5],no binding

# Source: patent US20240115603A1 (Zymeworks, published 2024)
